Reference: the RNAGym collection of RNA variant scans (doi:10.7554/elife.80360)

B1: Hairpin Ribozyme (parent)
chain: GUCCUCUUUCACGUGCGCGUGAAAGAGAGAAGUGAACCAGAGAAACACACGUUGUGGUAUAUUACCUGGUA

Variants of: B1
Test: self-cleavage, relative activity (ratio to wild type); higher = more cleavage; co-transcriptional

Compared with U7C A49G, U7A U67C is lower in self-cleavage: 0.478 for the first, 0.25 for the second.

Compared with U7C G17U, U7A U60C is higher in self-cleavage: 0.892 for the first, 0.923 for the second.

First: U7A U60G
Second: U7G G40U
The self-cleavage of the first is higher: 0.496 for the first, 0.214 for the second.

First: C6U U53C
Second: C6U U53G
The self-cleavage of the first is lower: 0.704 for the first, 0.801 for the second.

Compared with C6U C66A, C6U C66G is higher in self-cleavage: 0.11 for the first, 0.194 for the second.

First: U7G G13U
Second: C6U G68A
The self-cleavage of the first is higher: 0.632 for the first, 0.209 for the second.

Compared with C6U G68C, C6U G68U is higher in self-cleavage: 0.154 for the first, 0.239 for the second.

First: C6U C38A
Second: U7G C66G
The self-cleavage of the first is lower: 0.0889 for the first, 0.0969 for the second.

Compared with C6U U67G, U7A A22U is higher in self-cleavage: 0.271 for the first, 0.814 for the second.

Going from U8A C12U to U8A A59C, the self-cleavage falls from 0.747 to 0.165.

First: U7A A24U
Second: C6G G56U
The self-cleavage of the first is higher: 1.15 for the first, 0.141 for the second.

Compared with U7G U62G, U7C U14A is higher in self-cleavage: 0.223 for the first, 0.808 for the second.

Compared with C6U A49U, C6U A49C is lower in self-cleavage: 0.159 for the first, 0.0449 for the second.

First: U7G G21A
Second: U7G G21U
The self-cleavage of the first is higher: 0.499 for the first, 0.453 for the second.

Going from U7A G69U to U7A A41G, the self-cleavage rises from 0.271 to 0.973.

Going from U7A A61G to U7A A61U, the self-cleavage falls from 0.186 to 0.167.

Going from C6G G68C to C6G G68U, the self-cleavage rises from 0.131 to 0.156.

Compared with C6G G68A, C6U G34U is higher in self-cleavage: 0.132 for the first, 1.21 for the second.

Going from C6U G25C to U8A A22C, the self-cleavage falls from 0.773 to 0.594.

First: C6U C65U
Second: U7A U52G
The self-cleavage of the first is lower: 0.323 for the first, 0.733 for the second.

Going from C6U A71C to U7A A43U, the self-cleavage falls from 1.05 to 0.216.

First: U8A A44U
Second: U7G A49G
The self-cleavage of the first is lower: 0.0969 for the first, 0.421 for the second.

Going from U7G U60A to U7C A61U, the self-cleavage falls from 0.795 to 0.175.

Compared with U7C A61G, C6U A24G is higher in self-cleavage: 0.164 for the first, 0.353 for the second.

Going from C6G G51A to C6G G51C, the self-cleavage falls from 0.682 to 0.458.

Compared with C6U C37A, U7C G34U is higher in self-cleavage: 0.286 for the first, 1.32 for the second.

Compared with U7C G34A, U7G G42A is lower in self-cleavage: 1.17 for the first, 0.218 for the second.

Going from U7A A26C to U7A A26U, the self-cleavage rises from 0.174 to 0.202.

Compared with C6G C10A, U7G G27A is higher in self-cleavage: 0.354 for the first, 0.369 for the second.

First: C6G U70C
Second: U7C A71U
The self-cleavage of the first is lower: 0.497 for the first, 0.592 for the second.

First: U7C C50U
Second: U7A G54C
The self-cleavage of the first is higher: 0.523 for the first, 0.349 for the second.

Compared with U7A U53C, U7A U53A is lower in self-cleavage: 1.07 for the first, 0.879 for the second.

Compared with U7C U62C, U7G G15C is higher in self-cleavage: 0.196 for the first, 0.836 for the second.

Compared with U7G G68A, U7G G68C is lower in self-cleavage: 0.3 for the first, 0.224 for the second.

Compared with C6U U62G, U7G U55C is higher in self-cleavage: 0.102 for the first, 0.152 for the second.

First: U7G U55A
Second: U7G C38U
The self-cleavage of the first is lower: 0.225 for the first, 0.377 for the second.

First: U7A A49C
Second: C6U C48U
The self-cleavage of the first is lower: 0.18 for the first, 0.227 for the second.

Going from C6U C48A to C6U G56U, the self-cleavage falls from 0.209 to 0.144.

Going from U7C A31G to U7C A31U, the self-cleavage falls from 0.525 to 0.112.

Compared with U7A G13C, U7A G13U is lower in self-cleavage: 0.778 for the first, 0.774 for the second.

Compared with U7C C66A, U7C C66G is lower in self-cleavage: 0.217 for the first, 0.0988 for the second.

First: C6G C65U
Second: U7C U70G
The self-cleavage of the first is lower: 0.221 for the first, 0.877 for the second.

Going from U7A A23G to C6G A71U, the self-cleavage falls from 0.866 to 0.409.

Compared with U7G U33G, U7G G32C is lower in self-cleavage: 0.194 for the first, 0.161 for the second.

First: U7G A23C
Second: U7G A23G
The self-cleavage of the first is lower: 0.624 for the first, 0.752 for the second.

Compared with U7G A59U, U7G A59G is lower in self-cleavage: 0.116 for the first, 0.0757 for the second.

Compared with U7A G17C, U8A A35G is lower in self-cleavage: 0.791 for the first, 0.483 for the second.

First: U8A A35U
Second: U7A C10A
The self-cleavage of the first is lower: 0.459 for the first, 0.736 for the second.

Going from U7A C10U to U7A C46A, the self-cleavage falls from 0.799 to 0.0948.

First: U7A C65G
Second: U7A A45C
The self-cleavage of the first is higher: 0.284 for the first, 0.232 for the second.

Compared with C6G U63G, C6G U63C is lower in self-cleavage: 0.19 for the first, 0.142 for the second.

First: C6G U63A
Second: U7A U14C
The self-cleavage of the first is lower: 0.125 for the first, 0.772 for the second.

Compared with C6U G42A, U7A G25U is lower in self-cleavage: 0.275 for the first, 0.229 for the second.

Going from U7A G25A to U7G A22U, the self-cleavage rises from 0.249 to 0.59.

First: U7A C38G
Second: U7C G32C
The self-cleavage of the first is higher: 0.2 for the first, 0.141 for the second.

Going from U7C G13U to U7C G13A, the self-cleavage falls from 0.788 to 0.615.

Going from U7G A35G to U7G A35U, the self-cleavage rises from 0.916 to 0.921.

Going from C6U C12U to U7C U8A, the self-cleavage falls from 0.696 to 0.615.

Compared with U7C U8C, U7C A30U is lower in self-cleavage: 0.52 for the first, 0.257 for the second.

Compared with U7C A30C, U7A G15A is higher in self-cleavage: 0.121 for the first, 0.909 for the second.

Compared with U7A G15C, U7A G15U is lower in self-cleavage: 1.06 for the first, 0.844 for the second.

First: C6U U58A
Second: U7C U60C
The self-cleavage of the first is lower: 0.66 for the first, 0.905 for the second.

Going from U8A A24C to U8A A24U, the self-cleavage falls from 0.626 to 0.571.

Going from C6U A26U to U7C U67A, the self-cleavage falls from 0.414 to 0.167.

Compared with U7C U67C, C6G U9A is higher in self-cleavage: 0.215 for the first, 0.274 for the second.

Compared with C6G U9G, U7C A35U is higher in self-cleavage: 0.208 for the first, 0.523 for the second.

First: U7C A35G
Second: U8A A71U
The self-cleavage of the first is higher: 0.931 for the first, 0.631 for the second.

First: U7G A44C
Second: C6G G15A
The self-cleavage of the first is lower: 0.195 for the first, 0.475 for the second.

Compared with U7A A39C, U7A G42A is lower in self-cleavage: 0.498 for the first, 0.166 for the second.

First: C6U U7C
Second: C6G A41C
The self-cleavage of the first is higher: 0.555 for the first, 0.552 for the second.

Compared with U7G G57A, U7C A44G is lower in self-cleavage: 0.149 for the first, 0.0315 for the second.

First: U7C A44C
Second: U7C G57A
The self-cleavage of the first is lower: 0.0427 for the first, 0.153 for the second.

Going from U7C G57C to U7G C37A, the self-cleavage rises from 0.107 to 0.335.

Compared with C6G U8C, C6G U8G is higher in self-cleavage: 0.228 for the first, 0.269 for the second.

Going from C6G U8A to U7G C50A, the self-cleavage falls from 0.263 to 0.167.

Compared with U7G C50U, U7G A43U is lower in self-cleavage: 0.371 for the first, 0.123 for the second.

Going from U7G A43G to U7G G19C, the self-cleavage rises from 0.023 to 0.592.

Compared with U7G A26G, C6U A31C is lower in self-cleavage: 0.821 for the first, 0.0728 for the second.

First: C6U A28U
Second: U7C C10G
The self-cleavage of the first is lower: 0.495 for the first, 0.597 for the second.

First: C6G G54A
Second: C6G G54U
The self-cleavage of the first is higher: 0.28 for the first, 0.267 for the second.

First: U8A C37G
Second: U8A C37U
The self-cleavage of the first is lower: 0.241 for the first, 0.56 for the second.

First: U8A C37A
Second: U7C A59G
The self-cleavage of the first is higher: 0.288 for the first, 0.088 for the second.

Compared with U7A U70C, C6U G29A is lower in self-cleavage: 1.04 for the first, 0.158 for the second.

In the case of U7C G19U, the self-cleavage is reported as 0.68.
